In paper doi:10.64898/2025.12.26.696629:
Positions count from the first letter of the chain named. Like-named read-outs stand apart in the source and are kept apart here.

How the values were obtained:
[1] = target: Mtb SufR_(6-229)-His6 (Mycobacterium tuberculosis H37Rv); assay: cryo-EM structure
[2] = target: T1, SufR6-229-His6 (holo, [4Fe-4S]) (Mycobacterium tuberculosis H37Rv, UniProt O53151 30-253); assay: EMSA
T1 sequence: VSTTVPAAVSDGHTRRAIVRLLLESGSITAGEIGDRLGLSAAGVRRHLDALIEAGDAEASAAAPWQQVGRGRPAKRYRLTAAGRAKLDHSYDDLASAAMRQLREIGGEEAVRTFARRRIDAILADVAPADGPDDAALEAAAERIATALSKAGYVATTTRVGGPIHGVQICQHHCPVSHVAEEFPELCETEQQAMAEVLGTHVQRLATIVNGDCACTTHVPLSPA

SufR-R51A = target: T2, SufR-R51A (Mycobacterium tuberculosis H37Rv, UniProt O53151 30-253, R75A); assay: EMSA
T2 sequence: T1 sequence with R46A

[3] = target: T3, SufR-M1 (RRH motif mutant) (Mycobacterium tuberculosis H37Rv, UniProt O53151 30-253, R74A;R75A;H76A); assay: EMSA
T3 sequence: T1 sequence with R45A, R46A, H47A

SufR-M2 (AT-hook mutant) = target: T4, SufR-M2 (AT-hook mutant) (Mycobacterium tuberculosis H37Rv, UniProt O53151 30-253, R99A;R101A); assay: EMSA
T4 sequence: T1 sequence with R70A, R72A

SufR-R75M = target: T5, SufR-R75M (Mycobacterium tuberculosis H37Rv, UniProt O53151 30-253, R99M); assay: EMSA
T5 sequence: T1 sequence with R70M

[4] = target: T1, SufR6-229-His6 (holo, [4Fe-4S]); assay: EMSA; remark: listed apart in the source

Work on “Mtb SufR_(6-229)-His6 (domain or fragment)” yielded a stoichiometry N [1] of 2.

B1: PsufR-PM (dsDNA)
DNA 1: CCGATCAACGGAATTTTGTCGAAGTGATGTCACTAAAATCCCGGCGGTCT
DNA 2: AGACCGCCGGGATTTTAGTGACATCACTTCGACAAAATTCCGTTGATCGG
B1: binds [2].

B2: PsufR 50-bp (dsDNA)
DNA 1: CCGATCAACGGAATTTTGTCACACTGATGTTGTGAAAATCCCGGCGGTCT
DNA 2: AGACCGCCGGGATTTTCACAACATCAGTGTGACAAAATTCCGTTGATCGG
B2: no binding (SufR-R51A); no binding [3]; no binding (SufR-M2 (AT-hook mutant)). B2: binds (SufR-R75M).

B3: PsufR-DM (dsDNA)
DNA 1: B2 DNA 1 with T14C, T16G, A36C, A38G
DNA 2: B2 DNA 2 with T13C, T15G, A35C, A37G
B3: no binding [4].
